Assay results: US20260146091A1 (published 2026)

What was measured:
[1] = molecular target: T1, biotinylated mPD-1-Fc (BPS Bioscience) (mouse, UniProt Q02242 25-169, biotinylated (site not stated)); test: mPD-1/mPD-L1 binding inhibition
T1 chain: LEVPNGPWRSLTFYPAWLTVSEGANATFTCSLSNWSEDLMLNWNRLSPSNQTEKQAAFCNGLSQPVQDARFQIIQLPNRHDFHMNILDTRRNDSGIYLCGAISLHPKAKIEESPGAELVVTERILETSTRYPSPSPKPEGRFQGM

[2] = molecular target: hPD-1-Fc (human PD-1 ectodomain fused to human IgG1 Fc, R&D) (human, UniProt Q15116 25-170); test: hPD-1/hPD-L1 binding inhibition
hPD-1-Fc (human PD-1 ectodomain fused to human IgG1 Fc, R&D), sequence (Q15116 25-170): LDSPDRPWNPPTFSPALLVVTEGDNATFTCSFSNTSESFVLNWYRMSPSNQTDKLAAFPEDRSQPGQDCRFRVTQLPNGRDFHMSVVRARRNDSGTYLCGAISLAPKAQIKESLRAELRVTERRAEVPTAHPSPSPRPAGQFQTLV

[3] = molecular target: mPD-L1-Fc (mouse PD-L1 ectodomain fused to human IgG1 Fc, BioLegend) (mouse, UniProt Q9EP73 19-239); test: mPD-1/mPD-L1 binding inhibition
mPD-L1-Fc (mouse PD-L1 ectodomain fused to human IgG1 Fc, BioLegend), sequence (Q9EP73 19-239): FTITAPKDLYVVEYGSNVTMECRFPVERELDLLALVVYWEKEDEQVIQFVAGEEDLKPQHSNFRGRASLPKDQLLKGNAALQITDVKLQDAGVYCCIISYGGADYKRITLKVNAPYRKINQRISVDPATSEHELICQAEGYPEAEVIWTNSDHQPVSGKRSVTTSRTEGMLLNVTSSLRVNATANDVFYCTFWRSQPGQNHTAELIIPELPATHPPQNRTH

[4] = molecular target: biotinylated hPD-L1 fused to human IgG Fc (BPS Bioscience) (human, UniProt Q9NZQ7 19-238, biotinylated (site not stated)); test: hPD-1/hPD-L1 binding inhibition
biotinylated hPD-L1 fused to human IgG Fc (BPS Bioscience), sequence (Q9NZQ7 19-238): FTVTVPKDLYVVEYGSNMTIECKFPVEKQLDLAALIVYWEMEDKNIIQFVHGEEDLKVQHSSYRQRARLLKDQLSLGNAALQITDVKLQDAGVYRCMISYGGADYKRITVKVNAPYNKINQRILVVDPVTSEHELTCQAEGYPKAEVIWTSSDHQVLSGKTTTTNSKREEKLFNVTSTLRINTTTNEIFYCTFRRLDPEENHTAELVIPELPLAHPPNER

Binder	IC50 [1]	IC50 [2]	IC50 [3]	IC50 [4]
Nb11-Fc (Nb11 fused to mouse IgG1 Fc domain including hinge) (Fc fusion) AQVQLVQSGGGSVQAGDSLRLSCAVSGHPDSSYSMAWFRQAPGKERELVALISWSGAITHYSDSVKDRFTISRDNAKNEMYLQMDSLKPEDTAVYFCQADDPTSELNQYWGQGTQVTVSSGCKPCICTVPEVSSVFIFPPKPKDVLTITLTPKVTCVVVDISKDDPEVQFSWFVDDVEVHTAQTQPREEQFNSTFRSVSELPIMHQDWLNGKEFKCRVNSAAFPAPIEKTISKTKGRPKAPQVYTIPPPKEQMAKDKVSLTCMITDFFPEDITVEWQWNGQPAENYKNTQPIMDTDGSYFVYSKLNVQKSNWEAGNTFTCSVLHEGLHNHHTEKSLSHSPGK	0.0439 nM	0.147 nM		
Nb6p-Fc (Nb6p fused to mouse IgG2a Fc domain including hinge) (Fc fusion) AEVQLVESGGGLVQAGGSLRLSCAAAGRSFNSNAMGWVRQAPGKEREIVAVISATGSYTYYEDSVKGRFTISRDNSKNTVSLQMSSLSSEDTAVYYCAGSRTAALTTIMTLFNYWGQGTQVTVSSPGPRGPTIKPCPPCKCPAPNLLGGPSVFIFPPKIKDVLMISLSPIVTCVVVDVSEDDPDVQISWFVNNVEVHTAQTQTHREDYNSTLRVVSALPIQHQDWMSGKEFKCKVNNKDLPAPIERTISKPKGSVRAPQVYVLPPPEEEMTKKQVTLTCMVTDFMPEDIYVEWTNNGKTELNYKNTEPVLDSDGSYFMYSKLRVEKKNWVERNSYSCSVVHEGLHNHHTTKSFSRTPGK			0.889 nM	0.498 nM
Nb11 (anti-PD-1 nanobody) (VHH) VHH: QVQLVQSGGGSVQAGDSLRLSCAVSGHPDSSYSMAWFRQAPGKERELVALISWSGAITHYSDSVKDRFTISRDNAKNEMYLQMDSLKPEDTAVYFCQADDPTSELNQYWGQGTQVTVSS	1.71 nM	5.85 nM		
Nb6p (anti-PD-L1 nanobody) (VHH) VHH: EVQLVESGGGLVQAGGSLRLSCAAAGRSFNSNAMGWVRQAPGKEREIVAVISATGSYTYYEDSVKGRFTISRDNSKNTVSLQMSSLSSEDTAVYYCAGSRTAALTTIMTLFNYWGQGTQVTVSS			6.85 nM	3.34 nM
